Reference: article PMC12025097, “Elucidation of Expression Patterns and Functional Properties of Archaerhodopsin Derived from Halorubrum sp. Ejinoor” (Biology, 2025)
Each block holds one compound with its values, some of them ahead of it.

Legend:
BR = molecular target: T1, BR (Halobacterium salinarum, UniProt P02945); assay: HPLC of chromophore extracted from purified protein; assay type: binding; details: covalent; Schiff base to Lys216; dark- and light-adapted; 0.05% DDM, 10 mM HEPES, pH 7.5
T1 construct: gene bop; native BR from Hs by sucrose density gradient; text also mentions Ni-NTA purification and a vector-cloned BR from E. coli
T1 sequence (P02945 14-262): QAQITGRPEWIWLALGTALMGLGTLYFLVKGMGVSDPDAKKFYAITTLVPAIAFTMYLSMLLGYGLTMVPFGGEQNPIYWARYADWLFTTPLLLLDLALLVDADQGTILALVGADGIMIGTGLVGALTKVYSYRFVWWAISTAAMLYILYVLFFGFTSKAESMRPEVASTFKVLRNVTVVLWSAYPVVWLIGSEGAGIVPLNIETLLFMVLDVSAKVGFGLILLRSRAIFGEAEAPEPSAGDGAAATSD

Asp95 = Asp95 (UniProt position 95, YARYADWLFTT); assay: UV-vis; details: not stated (six-component buffer said to keep ionic strength constant); citric acid/MES/HEPES/MOPS/CHES/CAPS, each 10 mM; retinal-bound, detergent-solubilised trimer; steady-state titration; light or dark adaptation state not stated
Asp85 = Asp85 (UniProt position 98, WARYADWLFTT); details: cited from earlier work
[1] = molecular target: Bacteriorhodopsin (Halobacterium salinarum) (UniProt P02945); assay: SEC; Superdex 200 10/300 GL, 25 °C, 10 mM HEPES pH 7.5, 100 mM NaCl, 0.05% DDM, 0.5 mL/min, detection at 280 and 560 nm; apparent mass from calibration standards, trimer deduced after allowing for bound DDM
[2] = molecular target: Halorubrum sp. Ejinoor Archaerhodopsin (Halorubrum sp. Ejinoor); assay: as above

Compound: CC1=C(/C=C/C(C)=C/C=C/C(C)=C\C=O)C(C)(C)CCC1 [13-cis retinal]
HPLC of chromophore extracted from purified protein (BR): both HeAR and BR contain only two retinal chromophore isomers: All-trans and 13-cis

Compound: CC1=C(/C=C/C(C)=C/C=C/C(C)=C/C=O)C(C)(C)CCC1 [All-trans retinal]
HPLC of chromophore extracted from purified protein (BR): both HeAR and BR contain only two retinal chromophore isomers: All-trans and 13-cis

Compound: Archaerhodopsin HeAR (Halorubrum sp. Ejinoor)
pKa (Asp95): 3.5 ± 0.1

Compound: Bacteriorhodopsin (BR) (Halobacterium salinarum)
pKa (Asp85): ~2.6

stoichiometry N [1]: 3
Compound: Bacteriorhodopsin (from UniProt P02945 14-262) (natural protein)

stoichiometry N [2]: 3
Compound: Halorubrum sp. Ejinoor Archaerhodopsin (natural protein)
